Source: patent US20230056470A1, “USES OF ANTI-TGF-BETA ANTIBODIES AND CHECKPOINT INHIBITORS FOR THE TREATMENT OF PROLIFERATIVE DISEASES” (NOVARTIS AG, priority 2019, published 2023)

How the values were obtained:
[1] = Clinical PK of PDR001 in combination with NIS793, study CNIS793X2101; assay type: in vivo, human; settings: 100 or 300 mg Q3W and 400 mg Q4W
[2] = Clinical PK of NIS793, study CNIS793X2101 (single agent and combination with PDR001; escalation and expansion; cycles 1 and 3); assay type: in vivo, human
[3] = Population PK analysis and model-based simulations of NIS793 (dose escalation phase of CNIS793X2101); set-up: species or system human
Protocol: This is consistent with the observation that NIS793 PK appears dose proportional and time-independent based on the non-compartmental analyses.
Further a dose of 1400 mg would also match exposure observed at 20 mg/kg.

[4] = Mean, cycle 1, NIS793 0.3 mg/kg Q3W + PDR 100 mg Q3W, escalation
[5] = Mean, cycle 1, NIS793 0.3 mg/kg Q3W + PDR 300 mg Q3W, escalation
[6] = Mean, cycle 1, NIS793 0.3 mg/kg Q3W Liquid, single agent, escalation
[7] = Mean, cycle 1, NIS793 1 mg/kg Q3W + PDR 300 mg Q3W, escalation
[8] = Mean, cycle 1, NIS793 1 mg/kg Q3W Liquid, single agent, escalation
[9] = Mean, cycle 1, NIS793 1 mg/kg Q3W Lyophilisate, single agent, escalation
[10] = Mean, cycle 1, NIS793 3 mg/kg Q3W + PDR 300 mg Q3W, escalation
[11] = Mean, cycle 1, NIS793 10 mg/kg Q3W + PDR 300 mg Q3W, escalation
[12] = Mean, cycle 1, NIS793 20 mg/kg Q2W + PDR 400 mg Q4W, escalation
[13] = Mean, cycle 1, NIS793 30 mg/kg Q2W + PDR 400 mg Q4W, escalation
[14] = Mean, cycle 1, NIS793 30 mg/kg Q3W + PDR 300 mg Q3W, escalation
[15] = cycle 1, NIS793 2100 mg Q3W + PDR 300 mg Q3W, MSS-CRC, expansion, mean
[16] = cycle 1, NIS793 2100 mg Q3W + PDR 300 mg Q3W, NSCLC, expansion, mean
[17] = cycle 3, NIS793 0.3 mg/kg Q3W + PDR 100 mg Q3W, escalation, mean
[18] = cycle 3, NIS793 0.3 mg/kg Q3W + PDR 300 mg Q3W, escalation, mean
[19] = cycle 3, NIS793 0.3 mg/kg Q3W Liquid, single agent, escalation, mean
[20] = cycle 3, NIS793 1 mg/kg Q3W + PDR 300 mg Q3W, escalation, mean
[21] = cycle 3, NIS793 1 mg/kg Q3W Liquid, single agent, escalation, mean
[22] = cycle 3, NIS793 1 mg/kg Q3W Lyophilisate, single agent, escalation, mean
[23] = cycle 3, NIS793 3 mg/kg Q3W + PDR 300 mg Q3W, escalation, mean
[24] = cycle 3, NIS793 10 mg/kg Q3W + PDR 300 mg Q3W, escalation, mean
[25] = cycle 3, NIS793 20 mg/kg Q2W + PDR 400 mg Q4W, escalation, mean
[26] = cycle 3, NIS793 30 mg/kg Q3W + PDR 300 mg Q3W, escalation, mean
[27] = cycle 3, NIS793 2100 mg Q3W + PDR 300 mg Q3W, MSS-CRC, expansion, mean (SD)

In the case of “PDR001: anti-PD-1 inhibitor spartalizumab, also known as PDR001 (Novartis)”, the “PK of PDR001 in combination with NIS793 versus single agent data” value [1] is reported as “appears to be similar to the single agent data”.

For “NIS793: fully human IgG2, human/mouse cross-reactive, TGF-β-neutralizing antibody; heavy and light chain SEQ ID NOs: 9 and 10”, the “Increase in NIS793 exposure (Cycle 1 Cmax and AUClast) with dose” value ([2]; 30 minute intravenous infusion, 0.3 mg/kg to 30 mg/kg) was “approximately dose-proportional increase”, the AUClast [2, 4] was 1360000 ng·h/mL and the Clast [2, 4] was 1400 ng/mL. For the same substance, the Cmax [2, 4] was 6440 ng/mL, the AUClast [2, 5] was 1700000 ng·h/mL and the Clast [2, 5] was 1530 ng/mL. For the same substance, the Cmax [2, 5] was 11200 ng/mL, the AUClast [2, 6] was 1140000 ng·h/mL and the Clast [2, 6] was 1060 ng/mL. The Cmax [2, 6] was 7180 ng/mL, the AUClast [2, 7] was 5850000 ng·h/mL and the Clast [2, 7] was 8790 ng/mL. It also gave a Cmax [2, 7] of 30800 ng/mL, an AUClast [2, 8] of 4170000 ng·h/mL and a Clast [2, 8] of 4320 ng/mL. The Cmax [2, 8] was 24900 ng/mL, the AUClast [2, 9] was 4770000 ng·h/mL and the Clast [2, 9] was 4780 ng/mL. It also gave a Cmax [2, 9] of 27600.0 ng/mL, an AUClast [2, 10] of 11400000 ng·h/mL and a Clast [2, 10] of 14300 ng/mL. The Cmax [2, 10] was 58400 ng/mL, the AUClast [2, 11] was 3750000 ng·h/mL and the Clast [2, 11] was 44800 ng/mL. The Cmax [2, 11] was 181000 ng/mL, the AUClast [2, 12] was 54500000 ng·h/mL and the Clast [2, 12] was 107000 ng/mL. The Cmax [2, 12] was 333000 ng/mL, the AUClast [2, 13] was 69100000 ng·h/mL and the Clast [2, 13] was 154000 ng/mL. It also gave a Cmax [2, 13] of 439000 ng/mL, an AUClast [2, 14] of 90900000 ng·h/mL and a Clast [2, 14] of 133000 ng/mL. The Cmax [2, 14] was 519000 ng/mL, the AUClast [2, 15] was 94700000 ng·h/mL and the Clast [2, 15] was 206000 ng/mL. The Cmax [2, 15] was 547000 ng/mL, the AUClast [2, 16] was 140000000 ng·h/mL and the Clast [2, 16] was 180000 ng/mL. The Cmax [2, 16] was 743000 ng/mL, the AUClast [2, 17] was 2530000 ng·h/mL and the Clast [2, 17] was 2960 ng/mL. For the same substance, the Cmax [2, 17] was 8990 ng/mL, the AUClast [2, 18] was 2960000 ng·h/mL and the Clast [2, 18] was 3330 ng/mL. The Cmax [2, 18] was 11600 ng/mL, the AUClast [2, 19] was 1820000 ng·h/mL and the Clast [2, 19] was 1900 ng/mL. It also gave a Cmax [2, 19] of 8750 ng/mL, an AUClast [2, 20] of 5630000 ng·h/mL and a Clast [2, 20] of 9710 ng/mL. It also gave a Cmax [2, 20] of 31300 ng/mL, an AUClast [2, 21] of 2910000 ng·h/mL and a Clast [2, 21] of 4290 ng/mL. It also gave a Cmax [2, 21] of 9830 ng/mL, an AUClast [2, 22] of 4090000 ng·h/mL and a Clast [2, 22] of 6350 ng/mL. The Cmax [2, 22] was 13800 ng/mL, the AUClast [2, 23] was 13900000 ng·h/mL and the Clast [2, 23] was 16100 ng/mL. For the same substance, the Cmax [2, 23] was 55200 ng/mL, the AUClast [2, 24] was 69200000 ng·h/mL and the Clast [2, 24] was 95900 ng/mL. For the same substance, the Cmax [2, 24] was 220000 ng/mL, the AUClast [2, 25] was 149000000 ng·h/mL and the Clast [2, 25] was 154000 ng/mL. For the same substance, the Cmax [2, 25] was 524000 ng/mL, the AUClast [2, 26] was 242000000 ng·h/mL and the Clast [2, 26] was 228000 ng/mL. The Cmax [2, 26] was 713000 ng/mL, the AUClast [2, 27] was 95500000 (88500000) h*ng/mL and the Clast [2, 27] was 341000 (313000) ng/mL. The Cmax [2, 27] was 590000 (319000) ng/mL, the “Between subject variability (CV %) for Cmax” value ([2]; patients, across dose cohorts) was 12.1 to 73.3% and the “Population PK model that describes NIS793 pharmacokinetics” value ([3]; dose escalation concentration data) was “two compartment model with first order elimination from the central compartment”. The “Estimated exponent of body weight as covariate on clearance (power model)” value ([3]; population PK model, CV %=40%) was 0.55.
